In US20200317768A1:

Key:
[1] = biological target: human FcγRIIaR extracellular domain, C-terminal His-tag (human) (UniProt P12318); experiment: SPR 25C; FcgR bound per captured antibody, relative to parent B3
[2] = biological target: human FcγRIIIaV extracellular domain, C-terminal His-tag (human) (UniProt P08637); experiment: as above

human FcγRIIaR extracellular domain, C-terminal His-tag (human), sequence (P12318 34-217 H167R): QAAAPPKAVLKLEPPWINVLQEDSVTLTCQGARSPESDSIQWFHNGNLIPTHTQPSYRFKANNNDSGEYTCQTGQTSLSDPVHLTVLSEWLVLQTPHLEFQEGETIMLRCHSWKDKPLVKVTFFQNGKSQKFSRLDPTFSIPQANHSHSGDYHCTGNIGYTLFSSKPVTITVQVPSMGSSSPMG

- Binding to human FcgRs (parent B3 = 100) (parent B3 = 100) [1]: 8
- Binding to human FcgRs (parent B3 = 100) (parent B3 = 100) [2]: 2
Substance: GpH7-B3 variant V266F/GpL16-k0 (antibody)
